# In patent US20150067898:
# Tested on: ssAPC14.2 TALEN right monomer (Xanthomonas TALE-FokI (artificial)?)
# Test: cell_activity
# Conditions: pair with p5; repeat 50%; pig fibroblasts
sequence,measurement,value
ACAGAAATTCTGGGT (double strand) [APC14.2 right half-site],activity,48 % HDR day 3
